Data taken from article PMC3639893, “Characterization of a Novel Metal-Dependent D-Psicose 3-Epimerase from Clostridium scindens 35704” (PLoS ONE, 2013).

Biological target: the molecule itself
Experiment: SEC; gel filtration of the purified native enzyme, buffer and standards not told

B1: D-psicose 3-epimerase from Clostridium scindens ATCC 35704 (hypothetical protein CLOSCI_02528) (enzyme, UniProt B0NGC5 1-289, looked up)
chain: MKHGIYYAYWEQEWAADYKRYVEKAAKLGFDILEVGAAPLPDYSAQEVKELKKCADDNGIQLTAGYGPAFNHNMGSSDPKIREEALQWYKRLFEVMAGLDIHLIGGALYSYWPVDFATANKEEDWKHSVEGMQILAPIASQYGINLGMEVLNRFESHILNTSEEGVKFVTEVGMDNVKVMLDTFHMNIEESSIGDAIRHAGKLLGHFHTGECNRMVPGKGRTPWREIGDALREIEYDGTVVMEPFVRMGGQVGSDIKVWRDISKGAGEDRLDEDARRAVEFQRYMLEWK
notes: D-psicose 3-epimerase (hypothetical protein CLOSCI_02528, protein ID ZP_02432283) of Clostridium scindens ATCC 35704; full-length synthetic gene cloned NdeI/XhoI into pET-22b(+); No removal of the C-terminal 6xhistidine tag is described; Metal-free after dialysis against EDTA; Subunit about 32 kDa by SDS-PAGE, native enzyme about 125 kDa by gel filtration; also called C. scindens DPEase; DPEase
In the case of B1, the “stoichiometry N” value is reported as 4.
